Source: PMC3128127
Values joined by “and” are separate entries in the source; they are usually repeats but may differ in a detail not shown here. Equal entries are not always repeated.

Tests used:
[1] = target: HIV-1 GagPol, protease-inactive (D25A, PR-), from an expression plasmid (HIV-1); test: incorporation into virus-like particles (fluorescence microscopy of pelleted, filtered particles)
[2] = target: HIV-1 (NL4-3) GagPol, wild type, in authentic virions (HIV-1 (NL4-3)); test: incorporation into virions (quantitative fluorescence-based Western blot, LI-COR)

Sequence of DsRed-clathrin LC (P09496 whole entry): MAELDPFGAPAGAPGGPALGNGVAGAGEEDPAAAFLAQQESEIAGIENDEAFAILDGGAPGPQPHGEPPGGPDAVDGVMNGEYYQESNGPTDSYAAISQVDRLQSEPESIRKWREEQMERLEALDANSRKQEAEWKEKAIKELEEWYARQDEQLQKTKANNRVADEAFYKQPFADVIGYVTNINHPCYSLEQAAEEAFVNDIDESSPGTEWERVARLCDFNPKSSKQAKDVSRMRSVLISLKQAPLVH

Substance	percent of VLPs labelled with DsRed-clathrin LC [1] [%]	percent of the total clathrin HC of the culture present in virions [2]
DsRed-clathrin LC (from UniProt P09496 1-248) (natural protein)	40	–
clathrin heavy chain (from UniProt Q00610 1-1675) (natural protein)	–	6% and 8%
